Assay results taken from patent publication US8614103B2, “Compositions and methods for treating sphingosine-1-phosphate (S1P) related ocular diseases and conditions” (Lpath, Inc., priority 2006, dated 2013).

Assays:
[1] = test system: fibroblasts (Swiss 3T3, cardiac fibroblasts, WI-38); test: S1P-stimulated fibroblast proliferation, migration, collagen expression, myofibroblast differentiation; assay type: cell-based; conditions: 1 μg/mL antibody; 0.1-1 μM S1P
Description: See Example 7, below, for experimental details. […] In these experiments, fibroblasts were serum-starved and then treated with 0, 0.1, 0.5, or 1 μM S1P+/−1 μg/mL SPHINGOMAB for 12-24 hr. […] SPHINGOMAB neutralized each of these S1P effects. SPHINGOMAB reduced perivascular fibrosis in vivo in a murine model of a permanent myocardial infarction (E).
S1P makes profound contributions to wound healing by activating fibroblast migration, proliferation and collagen production; SPHINGOMAB neutralizes these effects. Several studies using multiple types of fibroblasts confirm S1P's ability to promote wound healing: 1) S1P increased Swiss-3T3 fibroblast proliferation as measured by ^3H-thymidine incorporation using standard methods (FIG. 7A); 2) S1P promoted the migration of cardiac fibroblasts in a standard scratch wound healing assay. […] In each of these assays, SPHINGOMAB neutralized S1P's. It is anticipated that ocular fibroblasts would respond similarly to S1P and SPHINGOMAB.

[2] = test system: endothelial cell (EC) infiltration; test: In vivo Matrigel plug assay, S1P plugs, EC infiltration; parameters: species or system mouse; conditions: systemic administration every 48 hrs
Description: Based on in vivo studies showing that S1P increased endothelial capillary growth into subcutaneously implanted Matrigel plugs, we speculated that SPHINGOMAB could reduce de novo BV formation in vivo. To investigate this, we employed the in vivo Matrigel Plug assay for neovascularization. In one set of experiments, Matrigel was supplemented with either 1 μM S1P, 0.5 μg/mL bFGF or 1 μg/mL VEGF and then […]. into mice (n=4). After 10 days, the mice were heparinized and injected with the fluorescent lectin, Isolectin B4-FITC, which binds to adhesion molecules expressed by vascular EC that form the growing BVs. The plugs were then excised, frozen in OCT, sectioned and viewed for FITC-stained BVs.
Sections of the plugs were then stained with hemotoxyln & eosin for evaluation of EC infiltration (FIG. 6B). The infiltration of ECs is a critical step in neo-vascularization. […] Cell infiltration is presumed to be ECs although we recognize that other cell types such as immune cells may also be stained.

[3] = test system: macrophage and mast cell infiltration; test: Murine infarct model, immune cell infiltration; assay type: in vivo, mouse; conditions: 25 mg/kg; four days post-MI
Description: SPHINGOMAB reduced immune-cell wound infiltration in vivo. Mice were subjected to MI, treated with saline or 25 mg/kg SPHINGOMAB 48 hr. after surgery and then sacrificed on day 4. SPHINGOMAB reduced macrophage (A) and mast cell (B) infiltration into the wound. Data are represented as fold decrease of saline-treated values.
Based upon the similarities of immune and inflammatory responses in CNV and CVD, the efficacy of SPHINGOMAB to mitigate immune cell infiltration into a wound was evaluated in a murine infarct model as an indication of SPHINGOMAB's potential effects in mitigating these damages during AMD [Vine, et al. (2005), Opthalmology, vol 112: 2076-80; and Seddon and Chen (2004), Int Opthalmol Clin, vol 44: 17-39]. Four days post-MI, macrophage and mast cell infiltration was evaluated using MAC-1 and MCG35 antibodies, respectively, within the area at risk.

B1: LT1002: murine monoclonal antibody to S1P, IgG1 kappa, hybridoma clone 306D326.26 (antibody, listed as Mus sp., V domains shown)
VH: QAHLQQSDAELVKPGASVKISCKVSGFIFIDHTIHWMKQRPEQGLEWIGCISPRHDITKYNEMFRGKATLTADKSSTTAYIQVNSLTFEDSAVYFCARGGFYGSTIWFDFWGQGTTLTVS
VL: ETTVTQSPASLSMAIGEKVTIRCITTTDIDDDMNWFQQKPGEPPNLLISEGNILRPGVPSRFSSSGYGTDFLFTIENMLSEDVADYYCLQSDNLPFTFGSGTKLEIK
Question: For B1, which “effect on S1P-stimulated fibroblast proliferation, migration, collagen expression, myofibroblast differentiation” value [1] is on record?
Answer: neutralized

Question: And the “EC infiltration into S1P Matrigel plugs” value [2]?
Answer: reduced amount of EC infiltration

Question: And the “density of inflammatory macrophages” value [3]?
Answer: dramatically attenuated

Question: And the “density of mast cells” value [3]?
Answer: dramatically attenuated
